Experimental data from the MegaScale stability set (Tsuboyama et al. 2023).

B1: EEHEE_rd4_0763 (parent)
chain: LTVHVGNVTYHFDNPEQAEEWAKRMAKKYQGQIHVKDGQFRIE

Variants of: B1
Test: folding stability dG (cDNA display proteolysis); higher = more stable
Settings: PBS, room temperature

Folding stability dG [kcal/mol], by site and new letter:
H4: I 1.9; T 1.85; E 1.24; K 1.68; Q 1.72; S 1.72; D 0.78
Y10: W 1.85; N 0.135; A 0.513; M 0.903; T 0.369; S 0.143; D 0.031; F 1.54
A18: Q 0.969; H 0.576; E 0.367; C 1.54; L 1.27
K23: Q 1.55; P -0.41; R 1.85; E 1.2; M 1.61; H 1.58; T 1.32; Y 1.62; I 1.76; W 1.56; A 1.3; L 1.69
V35: G 0.956; A 0.96; I 1.74; S 1.15; T 1.18; L 1.62; W 1.81; H 1.21
Q30: H 2.02; T 1.2; W 1.31; E 1.33; S 1.66; I 1.18
G38: A 0.755; P 1.18; Q 0.9; T 0.621; R 0.874; E 1.07
T9: F 1.37; L 1.58; E 1.29; V 1.98; G 0.696; I 1.92; R 1.4; M 1.55; Q 1.29; Y 1.45; W 1.28; A 1.58; N 0.836
V8: D 1.19; G 0.756; L 1.66; Y 1.78; I 1.7; W 1.81
N14: F 1.47; P -0.002; Y 1.43; S 1.67; R 1.45; G 1.03; I 1.49; A 1.42; L 1.59
Q39: F 1.17; S 1.57; V 1.57; A 1.71; H 1.76; G 1.7; K 1.23; R 1.09; I 1.52
K28: E 1.37; N 0.823; D 0.954; V 1.43; T 1.03; C 2.59; P 0.519; H 1.53; G 0.692; F 1.67; I 1.61
D37: F 0.868; W 0.774; P 0.309; G 1.12; M 0.773; T 0.617; S 0.634; E 1.23
F40: Y 1.78; V 1.55; N 1.14; Q 0.978; T 1.2; P 1.01; G 0.985; I 2.25
H11: Y 1.85; I 1.56; L 1.5; K 1.6; N 1.25; S 1.43; R 1.58
Q17: T 1.57; E 1.84; V 1.57; P 0.493
T2: E 1.48; D 1.22; K 1.41; L 1.64; S 1.55
I33: H 0.852; R 0.644; L 1.65; F 1.41; A 1.03; P 0.833; D 0.877; W 1.34; N 0.836
R41: W 3.13; H 2.48; V 2.45; P 1.21; Y 3.29; Q 1.66; E 1.59; F 3.1; M 1.94; T 2.02
G31: K 1.24; F 1.69; C 2.42; T 1.52; S 1.47
P15: D 1.17; W 1.91; C 1.86; Y 2.17
H34: Y 1.79; T 2.03; A 1.56; V 2.26; P 0.852; N 1.52; G 1; S 1.83
E16: V 1.75; W 1.67; A 1.68; Q 1.69; R 1.74; K 1.77
R24: Q 1.54; H 1.44; Y 1.87; G 0.948; N 1.09; W 1.67; I 1.75; V 1.58; S 1.33; E 1.43
F12: P -0.199; A 0.274; N -0.088; Y 0.446; S 0.081; R -0.481; T -0.063
Q32: M 1.49; S 1.62; Y 1.51; C 1.93; K 1.71; F 1.53; I 2.03; W 1.21
K36: T 1.73; M 1.67; H 1.75; W 1.65; Y 1.7; I 2.15; E 1.84; N 1.49; A 1.49; P 0.849; G 1.39
W21: D -0.466; I 0.395; K -0.246; V 0.517; C 2.55; Y 1.5; F 2.28
V3: F 1.03; P 0.241; R 0.352; A 0.668; M 0.815; K 0.424; G 0.606
N7: R 1.76; F 1.62; A 1.6; L 1.55; P 1.45; G 1.71; T 1.67; E 1.37
M25: F 1.42; H 0.756; R 0.567; E 0.535; P -0.51; Q 0.839; W 1.34; V 1.23; D -0.162
I42: E 1.08; L 0.845; P 1.14; A 1.02; H 1.12; F 1.02; W 1.32; D 1.17; M 0.632
V5: T 0.582; E 0.355; F 1.74; A 1.32; C 2.66; W 1.82; L 1.54
K27: W 1.45; R 1.75; Y 1.51; G 1.13; T 1.58; S 1.55; V 1.6; H 1.53; L 1.75; D 1.44; F 1.57
D13: T 1.74; W 1.4; K 1.67; V 1.46; C 2.24; H 1.37; P 1.45
A26: G 0.842; L 1.25; K 0.73; Y 1.15; T 0.749; V 1.09; D 0.393; Q 0.967; N 0.911; I 1.06
L1: M 1.84; A 2.1; C 2.7; E 0.877; I 1.7; Q 1.45; R 1.7; K 1.51
E20: A 1.87; M 1.7; F 1.57; I 1.58; W 1.92; Q 1.69; Y 1.69; S 1.62
G6: A 1.41; S 1.11; P 0.447; T 0.772; M 1.51; W 1.5; E 1.01
Y29: R 0.723; K 0.706; Q 0.696; I 1.32; C 2.16; A 0.762; G 0.732; N 0.767; L 1.68
E43: C 3.04; S 1.4; M 1.5; Q 1.29; T 1.66; I 2
A22: M 1.36; G 0.659; R 1.01; D -0.159; K 0.757; W 1.27
E19: Q 1.58; K 1.62; F 2.3; W 2.63; C 2.53
